Measurements reported in publication PMC3792076, “Elucidation of Substrate Specificity in Aspergillus nidulans UDP-Galactose-4-Epimerase” (PLoS ONE, 2013).
Substitutions are numbered along the chain they refer to. Numbers in names are those of the source.

Substrate: O=c1ccn([C@@H]2O[C@H](COP(=O)(O)OP(=O)(O)O[C@H]3O[C@H](CO)[C@H](O)[C@H](O)[C@H]3O)[C@@H](O)[C@H]2O)c(=O)[nH]1
Assay: purified protein
Assay type: biochemical, Aspergillus nidulans
Settings: 2 mM NAD+, 100 mM Tris-HCl pH 8.5, 25°C

B1: AnGALE (Aspergillus nidulans FGSC A4) (protein)
chain: MPSGSVLVTGGTGYIGSFTTLALLEAGYKVVVADNLYNSSAEALNRIELISGKKAEFAQLDVTDEAAFDKVFEAHPDIDSVIHFAALKAVGESGEKPLDYYHVNVYGTICLLRSMVRHNVTNIVFSSSATVYGDATRFPDMIPIPEHCPLGPTNPYGNTKFAIELAITDVINAQRNNAKKAGNETEAAKWNGALLRYFNPAGAHPSGIMGEDPQGVPYNLLPLLAQVATGKREKLLVFGDDYASHDGTAIRDYIHILDLADGHLKALNYLRANNPGVRAWNLGTGRGSTVYEMIRAFSKAVGRDLPYEVAPRRAGDVLNLTSNPTRANTELGWKAQRTLEQACEDLWLWTKNNPQGYRQQPPAELLEQLKK
notes: N-terminal His-TEV tag (p-HIS-TEV-GALE), not cleaved for crystallization; E. coli BL21-Gold; homodimer
Km: 110 ± 10 µM
kcat: 12.8 ± 0.6 s⁻¹
kcat/Km: 116000 ± 8100 M⁻¹ s⁻¹

B2: AnGALE (Aspergillus nidulans FGSC A4; L320Y) (protein)
chain: B1 chain with L320Y
notes: as for B1
Km: 60 ± 10 µM
kcat: 1.5 ± 0.1 s⁻¹
kcat/Km: 26800 ± 1900 M⁻¹ s⁻¹
